Values belong to the binder of their own block, whether it stands above or below them. Starred links: 1 amine or outer side, 2 acyl side, 3 side chain; linkers in the order of their positions; H or OH if unused. Positions of bridges follow the written chain, without caps; N, C: chain ends. Groups on a side chain read outwards from the residue. Primed or numbered codes have the meaning given here. No end group written: not given here. *: point of attachment. C18 diacid′ = 17-carboxyheptadecanoyl on γGlu amine: (S)-4-carboxy-4-(17-carboxyheptadecanoylamino)butyryl; C20 diacid = O=C(O)CCCCCCCCCCCCCCCCCCC(=O)*; C18 diacid = O=C(O)CCCCCCCCCCCCCCCCC(=O)*; γGlu = O=C(O)[C@H](CCC(=O)[*:2])N[*:1]; AEEA = NCCOCCOCC(=O)O
Tests used:
Assay in all cases: cell-based or functional assay
[1] = molecular target: T1, rat calcitonin (a) receptor (rat, UniProt P32214 25-516)
T1 sequence (looked up): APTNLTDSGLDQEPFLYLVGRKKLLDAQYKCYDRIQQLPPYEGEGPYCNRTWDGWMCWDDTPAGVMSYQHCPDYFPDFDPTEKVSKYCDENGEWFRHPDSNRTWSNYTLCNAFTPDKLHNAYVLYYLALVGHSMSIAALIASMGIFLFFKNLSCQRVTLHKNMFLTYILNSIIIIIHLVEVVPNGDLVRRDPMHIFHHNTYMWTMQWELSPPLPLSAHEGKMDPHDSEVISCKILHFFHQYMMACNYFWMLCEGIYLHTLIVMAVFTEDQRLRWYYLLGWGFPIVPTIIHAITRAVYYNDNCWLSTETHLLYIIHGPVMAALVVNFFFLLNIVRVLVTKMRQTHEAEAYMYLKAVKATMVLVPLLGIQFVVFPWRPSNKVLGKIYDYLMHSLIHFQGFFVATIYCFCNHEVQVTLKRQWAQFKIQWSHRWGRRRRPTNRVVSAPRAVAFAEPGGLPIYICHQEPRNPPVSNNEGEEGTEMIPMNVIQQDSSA

[2] = molecular target: T2, human amylin 3(a) receptor (human calcitonin receptor + RAMP-3) (human, UniProt P30988 25-474; O60896 24-148)
T2 sequence (looked up) 1: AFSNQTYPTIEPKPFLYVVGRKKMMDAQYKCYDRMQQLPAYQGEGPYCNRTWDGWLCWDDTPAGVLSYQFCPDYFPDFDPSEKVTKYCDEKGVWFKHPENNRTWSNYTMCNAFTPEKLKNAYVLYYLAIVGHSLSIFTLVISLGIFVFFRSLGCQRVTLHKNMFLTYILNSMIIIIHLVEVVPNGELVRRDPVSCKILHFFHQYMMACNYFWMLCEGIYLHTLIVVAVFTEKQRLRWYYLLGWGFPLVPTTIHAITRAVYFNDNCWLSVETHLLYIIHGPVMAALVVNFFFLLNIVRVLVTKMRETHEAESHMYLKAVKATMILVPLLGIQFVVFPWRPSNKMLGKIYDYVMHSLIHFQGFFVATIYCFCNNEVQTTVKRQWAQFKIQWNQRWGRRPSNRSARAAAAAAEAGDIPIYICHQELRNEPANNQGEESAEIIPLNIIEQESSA
T2 sequence (looked up) 2: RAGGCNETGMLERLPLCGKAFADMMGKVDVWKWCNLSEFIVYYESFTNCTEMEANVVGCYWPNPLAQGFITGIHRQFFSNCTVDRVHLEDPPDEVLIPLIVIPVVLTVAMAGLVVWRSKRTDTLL

[3] = molecular target: T3, rat amylin 3(a) receptor (rat calcitonin(a) receptor + rat RAMP3) (rat, UniProt P32214 25-516; Q9JJ73 23-147)
T3 sequence (looked up) 1: T1 sequence (looked up)
T3 sequence (looked up) 2: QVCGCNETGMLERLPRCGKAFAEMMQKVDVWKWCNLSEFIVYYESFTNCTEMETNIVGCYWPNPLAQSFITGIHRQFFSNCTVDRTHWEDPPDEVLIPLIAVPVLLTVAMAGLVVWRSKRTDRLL

[4] = molecular target: T4, human calcitonin (a) receptor (human, UniProt P30988 25-474)
T4 sequence (looked up): T2 sequence (looked up) 1

- CTa receptor rat EC50 [1]: 0.656 nM
- Amylin receptor human EC50 [2]: 0.182 nM
- Amylin receptor rat EC50 [3]: 0.305 nM
- CTa receptor human EC50 [4]: 0.21 nM
B1: N-alpha-[(S)-4-Carboxy-4-(19-carboxynonadecanoylamino)butyryl]-His-[Glu14,His17,His35]-pramlintide (peptide)
peptide: {C20 diacid-γGlu}-HKCNTATCATQRLAEFLHHSSNNFGPILPPTNVGSHTY-NH2
modifications: disulfide 3-8
SMILES: CC[C@H](C)[C@H](NC(=O)[C@@H]1CCCN1C(=O)CNC(=O)[C@H](Cc1ccccc1)NC(=O)[C@H](CC(N)=O)NC(=O)[C@H](CC(N)=O)NC(=O)[C@H](CO)NC(=O)[C@H](CO)NC(=O)[C@H](Cc1c[nH]cn1)NC(=O)[C@H](Cc1c[nH]cn1)NC(=O)[C@H](CC(C)C)NC(=O)[C@H](Cc1ccccc1)NC(=O)[C@H](CCC(=O)O)NC(=O)[C@H](C)NC(=O)[C@H](CC(C)C)NC(=O)[C@H](CCCNC(=N)N)NC(=O)[C@H](CCC(N)=O)NC(=O)[C@@H](NC(=O)[C@H](C)NC(=O)[C@@H]1CSSC[C@H](NC(=O)[C@H](CCCCN)NC(=O)[C@H](Cc2c[nH]cn2)NC(=O)CC[C@H](NC(=O)CCCCCCCCCCCCCCCCCCC(=O)O)C(=O)O)C(=O)N[C@@H](CC(N)=O)C(=O)N[C@@H]([C@@H](C)O)C(=O)N[C@@H](C)C(=O)N[C@@H]([C@@H](C)O)C(=O)N1)[C@@H](C)O)C(=O)N[C@@H](CC(C)C)C(=O)N1CCC[C@H]1C(=O)N1CCC[C@H]1C(=O)N[C@H](C(=O)N[C@@H](CC(N)=O)C(=O)N[C@H](C(=O)NCC(=O)N[C@@H](CO)C(=O)N[C@@H](Cc1c[nH]cn1)C(=O)N[C@H](C(=O)N[C@@H](Cc1ccc(O)cc1)C(N)=O)[C@@H](C)O)C(C)C)[C@@H](C)O

- CTa receptor rat EC50 [1]: 5.35 nM
- Amylin receptor human EC50 [2]: 0.217 nM
- Amylin receptor rat EC50 [3]: 1.33 nM
- CTa receptor human EC50 [4]: 0.342 nM
B2: N-alpha-[(S)-4-Carboxy-4-(19-carboxynonadecanoylamino)butyryl]-[Glu14,Arg17,Ala25,Pro26,Ser28,Ser29,His35]-pramlintide (peptide)
peptide: {C20 diacid-γGlu}-KCNTATCATQRLAEFLRHSSNNFGAPLSSTNVGSHTY-NH2
modifications: disulfide 2-7
SMILES: CC(C)C[C@H](NC(=O)[C@H](CCCNC(=N)N)NC(=O)[C@H](CCC(N)=O)NC(=O)[C@@H](NC(=O)[C@H](C)NC(=O)[C@@H]1CSSC[C@H](NC(=O)[C@H](CCCCN)NC(=O)CC[C@H](NC(=O)CCCCCCCCCCCCCCCCCCC(=O)O)C(=O)O)C(=O)N[C@@H](CC(N)=O)C(=O)N[C@@H]([C@@H](C)O)C(=O)N[C@@H](C)C(=O)N[C@@H]([C@@H](C)O)C(=O)N1)[C@@H](C)O)C(=O)N[C@@H](C)C(=O)N[C@@H](CCC(=O)O)C(=O)N[C@@H](Cc1ccccc1)C(=O)N[C@@H](CC(C)C)C(=O)N[C@@H](CCCNC(=N)N)C(=O)N[C@@H](Cc1c[nH]cn1)C(=O)N[C@@H](CO)C(=O)N[C@@H](CO)C(=O)N[C@@H](CC(N)=O)C(=O)N[C@@H](CC(N)=O)C(=O)N[C@@H](Cc1ccccc1)C(=O)NCC(=O)N[C@@H](C)C(=O)N1CCC[C@H]1C(=O)N[C@@H](CC(C)C)C(=O)N[C@@H](CO)C(=O)N[C@@H](CO)C(=O)N[C@H](C(=O)N[C@@H](CC(N)=O)C(=O)N[C@H](C(=O)NCC(=O)N[C@@H](CO)C(=O)N[C@@H](Cc1c[nH]cn1)C(=O)N[C@H](C(=O)N[C@@H](Cc1ccc(O)cc1)C(N)=O)[C@@H](C)O)C(C)C)[C@@H](C)O

The remaining lines, values behind:

B3: N-epsilon25-[2-(2-{2-[2-(2-{2-[(S)-4-Carboxy-4-(17-carboxyheptadecanoylamino)butyrylamino]ethoxy}ethoxy)acetylamino]ethoxy}ethoxy)acetyl]-[Glu14,His17,Lys25]-pr … (peptide)
peptide: KCNTATCATQRLAEFLHHSSNNFGK([AEEA-AEEA-γGlu-C18 diacid])ILPPTNVGSNTY-NH2
modifications: disulfide 2-7; N-terminus assumed
SMILES: CC[C@H](C)[C@H](NC(=O)[C@H](CCCCNC(=O)COCCOCCNC(=O)COCCOCCNC(=O)CC[C@H](NC(=O)CCCCCCCCCCCCCCCCC(=O)O)C(=O)O)NC(=O)CNC(=O)[C@H](Cc1ccccc1)NC(=O)[C@H](CC(N)=O)NC(=O)[C@H](CC(N)=O)NC(=O)[C@H](CO)NC(=O)[C@H](CO)NC(=O)[C@H](Cc1c[nH]cn1)NC(=O)[C@H](Cc1c[nH]cn1)NC(=O)[C@H](CC(C)C)NC(=O)[C@H](Cc1ccccc1)NC(=O)[C@H](CCC(=O)O)NC(=O)[C@H](C)NC(=O)[C@H](CC(C)C)NC(=O)[C@H](CCCNC(=N)N)NC(=O)[C@H](CCC(N)=O)NC(=O)[C@@H](NC(=O)[C@H](C)NC(=O)[C@@H]1CSSC[C@H](NC(=O)[C@@H](N)CCCCN)C(=O)N[C@@H](CC(N)=O)C(=O)N[C@@H]([C@@H](C)O)C(=O)N[C@@H](C)C(=O)N[C@@H]([C@@H](C)O)C(=O)N1)[C@@H](C)O)C(=O)N[C@@H](CC(C)C)C(=O)N1CCC[C@H]1C(=O)N1CCC[C@H]1C(=O)N[C@H](C(=O)N[C@@H](CC(N)=O)C(=O)N[C@H](C(=O)NCC(=O)N[C@@H](CO)C(=O)N[C@@H](CC(N)=O)C(=O)N[C@H](C(=O)N[C@@H](Cc1ccc(O)cc1)C(N)=O)[C@@H](C)O)C(C)C)[C@@H](C)O
- CTa receptor rat EC50 [1]: 0.167 nM
- Amylin receptor human EC50 [2]: 0.0385 nM
- Amylin receptor rat EC50 [3]: 0.052 nM
- CTa receptor human EC50 [4]: 0.045 nM

B4: N-alpha-[(S)-4-Carboxy-4-(17-carboxyheptadecanoylamino)butyryl]-[Glu14,Arg17,His35]-pramlintide (peptide)
peptide: {C18 diacid-γGlu}-KCNTATCATQRLAEFLRHSSNNFGPILPPTNVGSHTY-NH2
modifications: disulfide 2-7
SMILES: CC[C@H](C)[C@H](NC(=O)[C@@H]1CCCN1C(=O)CNC(=O)[C@H](Cc1ccccc1)NC(=O)[C@H](CC(N)=O)NC(=O)[C@H](CC(N)=O)NC(=O)[C@H](CO)NC(=O)[C@H](CO)NC(=O)[C@H](Cc1c[nH]cn1)NC(=O)[C@H](CCCNC(=N)N)NC(=O)[C@H](CC(C)C)NC(=O)[C@H](Cc1ccccc1)NC(=O)[C@H](CCC(=O)O)NC(=O)[C@H](C)NC(=O)[C@H](CC(C)C)NC(=O)[C@H](CCCNC(=N)N)NC(=O)[C@H](CCC(N)=O)NC(=O)[C@@H](NC(=O)[C@H](C)NC(=O)[C@@H]1CSSC[C@H](NC(=O)[C@H](CCCCN)NC(=O)CC[C@H](NC(=O)CCCCCCCCCCCCCCCCC(=O)O)C(=O)O)C(=O)N[C@@H](CC(N)=O)C(=O)N[C@@H]([C@@H](C)O)C(=O)N[C@@H](C)C(=O)N[C@@H]([C@@H](C)O)C(=O)N1)[C@@H](C)O)C(=O)N[C@@H](CC(C)C)C(=O)N1CCC[C@H]1C(=O)N1CCC[C@H]1C(=O)N[C@H](C(=O)N[C@@H](CC(N)=O)C(=O)N[C@H](C(=O)NCC(=O)N[C@@H](CO)C(=O)N[C@@H](Cc1c[nH]cn1)C(=O)N[C@H](C(=O)N[C@@H](Cc1ccc(O)cc1)C(N)=O)[C@@H](C)O)C(C)C)[C@@H](C)O
- CTa receptor rat EC50 [1]: 2.36 nM
- Amylin receptor human EC50 [2]: 0.0675 nM
- Amylin receptor rat EC50 [3]: 0.038 nM
- CTa receptor human EC50 [4]: 0.335 nM

B5: N-alpha-[(S)-4-Carboxy-4-(17-carboxyheptadecanoylamino)butyryl]-[Glu14,His17,His35]-pramlintide (peptide)
peptide: {C18 diacid-γGlu}-KCNTATCATQRLAEFLHHSSNNFGPILPPTNVGSHTY-NH2
modifications: disulfide 2-7; not fully specified; printed as N-alpha-[(S)-4-Carboxy-4-(17-carboxyheptadecanoylamino)butyryl]-[Glu14,His17,His35]-pramlintide
- CTa receptor rat EC50 [1]: 0.148 nM
- Amylin receptor human EC50 [2]: 0.056 nM
- Amylin receptor rat EC50 [3]: 0.023 nM
- CTa receptor human EC50 [4]: 0.0605 nM

B6: N-alpha-[(S)-4-Carboxy-4-(17-carboxyheptadecanoylamino)butyryl]-Glu-[Glu14,Arg17,His35]-pramlintide (peptide)
peptide: {C18 diacid′-γGlu}-EKCNTATCATQRLAEFLRHSSNNFGPILPPTNVGSHTY-NH2
modifications: disulfide 3-8
- CTa receptor rat EC50 [1]: 17.6 nM
- Amylin receptor human EC50 [2]: 0.172 nM
- Amylin receptor rat EC50 [3]: 0.281 nM
- CTa receptor human EC50 [4]: 1.07 nM

Source: patent US20130005646A1 (Novo Nordisk, published 2013)
